The values that follow come from PMC3958483, “Fine Specificity and Molecular Competition in SLAM Family Receptor Signalling” (PLoS ONE, 2014).

What all share (assay): SPR; biotinylated phosphopeptides immobilised on streptavidin chip (about 25 RU single, 50 RU tandem motifs); soluble recombinant protein injected; 37°C; HBS-EP; equilibrium binding (Table 4; same-day purification not given)
The target in assay [1] is CD244 ITSM2 phosphopeptide (human).
For assay [2], the target named is CD244 ITSM4 phosphopeptide (human).
Assay [3] addresses CD244 ITSM3 phosphopeptide (human).

Broadly, the Kd is the concentration at which binding is half-saturated.

B1: EAT-2 (recombinant full-length human EAT-2) (natural protein)
chain: MDLPYYHGRLTKQDCETLLLKEGVDGNFLLRDSESIPGVLCLCVSFKNIVYTYRIFREKHGYYRIQTAEGSPKQVFPSLKELISKFEKPNQGMVVHLLKPIKRTSPSLRWRGLKLELETFVNSNSDYVDVLP
Consider B1, for which the Kd in assay [1] was 60 nM; in assay [2], 40 nM; in assay [3], 70 nM.

B2: SHP-2 N-terminal + C-terminal (N+C) SH2 domains (domain or fragment)
chain: TSRRWFHPNITGVEAENLLLTRGVDGSFLARPSKSNPGDFTLSVRRNGAVTHIKIQNTGDYYDLYGGEKFATLAELVQYYMEHHGQLKEKNGDVIELKYPLNCADPTSERWFHGHLSGKEAEKLLTEKGKHGSFLVRESQSHPGDFVLSVRTGDDKGESNDGKSKVTHVMIRCQELKYDVGGGERFDSLTDLVEHYKKNPMVETLGTVLQLKQPLNTT
In the case of B2, the dissociation constant Kd in assay [1] stood at 24000 nM.

B3: SHIP SH2 (SH2 domain from human SHIP-1) (domain or fragment)
chain: WNHGNITRSKAEELLSRTGKDGSFLVRASESISRAYALCVLYRNCVYTYRILPNEDDKFTVQASEGVSMRFFTKLDQLIEFYKKENMGLVTHLQYPV
With B3, the dissociation constant (Kd) in assay [1] was determined as 2300 nM; in assay [2], 5600 nM; in assay [3], 2200 nM.
